# Laboratory results published in patent US20230212319A1, “NOVEL ANTIGEN BINDING DOMAINS AND SYNTHETIC ANTIGEN RECEPTORS INCORPORATING THE SAME” (University of Southern California, priority 2020, published 2023).
# B1: 22651 (protein)
# chain: MALPVTALLLPLALLLHAARPDIQMTQSPSSLSASVGDRVTITCKASDHINNWLAWYQQKPGQAPKLLIYGATTLETGVPSRFSGSGSGTDYTLTISSLQPEDFATYYCQQSWNTPWTFGQGTKLEIKRLEADVSPKPTIFLPSIAETKLQKAGTYLCLLEKFFPDVIKIHWQEKKSNTILGSQEGNTMKTNDTYMKFSWLTVPEKSLDKEHRCIVRHENNKNGVDQEIIFPPIKTDVITMDPKDNCSKDANDTLLLQLTNTSAYYMYLLLLLKSVVYFAIITCCLLRRTAFCCNGEKSRAKRSGSGATNFSLLKQAGDVEENPGPTSMDWIWRILFLVGAATGAHSFEQVQLQQPGAELVKPGASVKMSCKASGYAFSSYWINWMKQKPGQGLEWIGQIYPGDGDTNYNGKFKGRATLTADTSSSTAYMQLSSLTSEDSAVYFCARSITTVVGCAMDYWGQGTSVTVSSTRPHTKPSVFVMKNGTNVACLVKEFYPKDIRINLVSSKKITEFDPAIVISPSGKYNAVKLGKYEDSNSVTCSVQHDNKTVHSTDFEVKTDSTDHVKPKETENTKQPSKSCHKPKAIVHTEKVNMMSLTVLGLRMLFAKTVAVNFLLTAKLFFLRAKRSGSGVKQTLNFDLLKLAGDVESNPGPSRGHMTEYKPTVRLATRDDVPRAVRTLAAAFADYPATRHTVDPDRHIERVTELQELFLTRVGLDIGKVWVADDGAAVAVWTTPESVEAGAVFAEIGPRMAELSGSRLAAQQQMEGLLAPHRPKEPAWFLATVGVSPDHQGKGLGSAVVLPGVEAAERAGVPAFLETSAPRNLPFYERLGFTVTADVEVPEGPRTWCMTRKPGA
# B2: 22652 (protein)
# chain: MALPVTALLLPLALLLHAARPDIQMTQSPSSLSASVGDRVTITCKASDHINNWLAWYQQKPGQAPKLLIYGATTLETGVPSRFSGSGSGTDYTLTISSLQPEDFATYYCQQSWNTPWTFGQGTKLEIKRLEVSPKPTIFLPSIAETKLQKAGTYLCLLEKFFPDVIKIHWQEKKSNTILGSQEGNTMKTNDTYMKFSWLTVPEKSLDKEHRCIVRHENNKNGVDQEIIFPPIKTDVITMDPKDNCSKDANDTLLLQLTNTSAYYMYLLLLLKSVVYFAIITCCLLRRTAFCCNGEKSRAKRSGSGATNFSLLKQAGDVEENPGPTSMDWIWRILFLVGAATGAHSFEQVQLQQPGAELVKPGASVKMSCKASGYAFSSYWINWMKQKPGQGLEWIGQIYPGDGDTNYNGKFKGRATLTADTSSSTAYMQLSSLTSEDSAVYFCARSITTVVGCAMDYWGQGTSVTVSSTRPHTKPSVFVMKNGTNVACLVKEFYPKDIRINLVSSKKITEFDPAIVISPSGKYNAVKLGKYEDSNSVTCSVQHDNKTVHSTDFEVKTDSTDHVKPKETENTKQPSKSCHKPKAIVHTEKVNMMSLTVLGLRMLFAKTVAVNFLLTAKLFFLRAKRSGSGVKQTLNFDLLKLAGDVESNPGPSRGHMTEYKPTVRLATRDDVPRAVRTLAAAFADYPATRHTVDPDRHIERVTELQELFLTRVGLDIGKVWVADDGAAVAVWTTPESVEAGAVFAEIGPRMAELSGSRLAAQQQMEGLLAPHRPKEPAWFLATVGVSPDHQGKGLGSAVVLPGVEAAERAGVPAFLETSAPRNLPFYERLGFTVTADVEVPEGPRTWCMTRKPGA
# B3: SEQ ID NO: 22009: two AABD attached in tandem to one of the two TCR constant chains (protein)
# chain: MALPVTALLLPLALLLHAARPLEGKPIPNPLLGLDSTGSGEDLKNVFPPEVAVFEPSKAEIAHTQKATLVCLATGFYPDHVELSWWVNGKEVHSGVCTDPQPLKEQPALNDSRYCLSSRLRVSATFWQNPRNHFRCQVQFYGLSENDEWTQDRAKPVTQIVSAEAWGRADCGITSASYHQGVLSATILYEILLGKATLYAVLVSALVLMAMVKRKDSRGRAKRSGSGATNFSLLKQAGDVEENPGPTSTMDWIWRILFLVGAATGAHSQLQLQESGPGLVKPSETLSLTCTVSGGSVSSSSYYWGWIRQPPGKRLELIGSIYYGGSTYFNPSLKSRVTISVDTSKNQFSLKLSSVTAADTAVYYCAGGDTYGPVGQWPSDYRGQGTLVTVSSGGGGSGGGSFEVQLLESGGGLVQPGGSLRLSCAASGFIFSIYAMSWVRQAPGKGLEWVSGISGSGVNTYYADSVKGRFIISRDNSRNTVYLQMNSLRADDTAVYHCANGKGWDGNTWYEDYRGQGTLVTVSSTREQKLISEEDGSGIQNPDPAVYQLRDSKSSDKSVCLFTDFDSQTNVSQSKDSDVYITDKCVLDMRSMDFKSNSAVAWSNKSDFACANAFNNSIIPEDTFFPSSDVPCDVKLVEKSFETDTNLNFQNLSVIGFRILLLKVAGFNLLMTLRLWSSRAKRSGSGVKQTLNFDLLKLAGDVESNPGPSRGHMTEYKPTVRLATRDDVPRAVRTLAAAFADYPATRHTVDPDRHIERVTELQELFLTRVGLDIGKVWVADDGAAVAVWTTPESVEAGAVFAEIGPRMAELSGSRLAAQQQMEGLLAPHRPKEPAWFLATVGVSPDHQGKGLGSAVVLPGVEAAERAGVPAFLETSAPRNLPFYERLGFTVTADVEVPEGPRTWCMTRKPGA
# B4: SEQ ID NO: 22096: FHVH attached to TCRg-6MD via IgCL linker and second FHVH attached to TCRd-6MD via IgG1-CH1 linker (protein)
# chain: MALPVTALLLPLALLLHAARPQLQLQESGPGLVKPSETLSLTCTVSGDSISSGDYYWGWIRQPPGKGLEWIGHIYYSGVTYYNPSLKSRVTISVDTSRNQFSLKLSSVTAADTAVYYCTREDSSNWRSRGQGTLVTVSSLEGQPKANPTVTLFPPSSEELQANKATLVCLISDFYPGAVTVAWKADGSPVKAGVETTKPSKQSNNKYAASSYLSLTPEQWKSHRSYSCQVTHEGSTVEKTVAPTECSPIKTDVITMDPKDNCSKDANDTLLLQLTNTSAYYMYLLLLLKSVVYFAIITCCLLRRTAFCCNGEKSRAKRSGSGATNFSLLKQAGDVEENPGPTSMDWIWRILFLVGAATGAHSFEVQLLESGGGLIQPGGSLRLSCAASGFTFSSHAMTWVRQAPGKGLEWVSAISGSGDYTHYADSVKGRFTISRDNSKNTVYLQMNSLRAEDSAVYYCAKDEDGGSLLGHRGQGTLVTVSSTRASTKGPSVFPLAPSSKSTSGGTAALGCLVKDYFPEPVTVSWNSGALTSGVHTFPAVLQSSGLYSLSSVVTVPSSSLGTQTYICNVNHKPSNTKVDKRVEPKSCEVKTDSTDHVKPKETENTKQPSKSCHKPKAIVHTEKVNMMSLTVLGLRMLFAKTVAVNFLLTAKLFFLRAKRSGSGVKQTLNFDLLKLAGDVESNPGPSRGHMTEYKPTVRLATRDDVPRAVRTLAAAFADYPATRHTVDPDRHIERVTELQELFLTRVGLDIGKVWVADDGAAVAVWTTPESVEAGAVFAEIGPRMAELSGSRLAAQQQMEGLLAPHRPKEPAWFLATVGVSPDHQGKGLGSAVVLPGVEAAERAGVPAFLETSAPRNLPFYERLGFTVTADVEVPEGPRTWCMTRKPGA
# B5: SEQ ID NO: 22010: two AABD attached in tandem to one of the two TCR constant chains (protein)
# chain: MALPVTALLLPLALLLHAARPLEGKPIPNPLLGLDSTGSGEDLKNVFPPEVAVFEPSKAEIAHTQKATLVCLATGFYPDHVELSWWVNGKEVHSGVCTDPQPLKEQPALNDSRYCLSSRLRVSATFWQNPRNHFRCQVQFYGLSENDEWTQDRAKPVTQIVSAEAWGRADCGITSASYHQGVLSATILYEILLGKATLYAVLVSALVLMAMVKRKDSRGRAKRSGSGATNFSLLKQAGDVEENPGPTSTMALPVTALLLPLALLLHAARPQLQLQESGPGLVKPSETLALTCNVSGGSISSSSYYWGWIRQPPGKRLEWIGSIYYSGSTYFNPSLKSRVTISVDTSKNQFSLKLSSVTAADTAVYYCAGGDYYGPVGQWPSDYRGQGTLVTVSSGSGGGGSGGGGSFEVQLLESGGGLVQPGGSLRLSCAASGFIFSSYAMSWVRQAPGKGQEWVSGVSGTGVNTYYADSVKGRFTISRDNSKNTLYLQMNSLRAEDTAVYYCASGKGWDSGSWYEDYRGQGTLVTVSSTREQKLISEEDGSGIQNPDPAVYQLRDSKSSDKSVCLFTDFDSQTNVSQSKDSDVYITDKCVLDMRSMDFKSNSAVAWSNKSDFACANAFNNSIIPEDTFFPSSDVPCDVKLVEKSFETDTNLNFQNLSVIGFRILLLKVAGFNLLMTLRLWSSRAKRSGSGVKQTLNFDLLKLAGDVESNPGPSRGHMTEYKPTVRLATRDDVPRAVRTLAAAFADYPATRHTVDPDRHIERVTELQELFLTRVGLDIGKVWVADDGAAVAVWTTPESVEAGAVFAEIGPRMAELSGSRLAAQQQMEGLLAPHRPKEPAWFLATVGVSPDHQGKGLGSAVVLPGVEAAERAGVPAFLETSAPRNLPFYERLGFTVTADVEVPEGPRTWCMTRKPGA
# How the values were obtained:
# [1] = test system: RAJI cells; test: JNG (Jurkat NFAT-GFP) cells expressing SAR: GFP induction on co-culture with RAJI; conditions: CD19 hu-mROO5-1 SIRs with deletion mutants of TCR constant chains; flow cytometry
# [2] = test system: target antigen-expressing cell line; test: Jurkat NFAT-GFP (JNG) assay: induction of NFAT promoter driven GFP expression; format: cell-based; conditions: SAR-expressing JNG cells co-cultured with cell lines expressing their target antigen(s)
# Method: Induction ofNFAT promoter driven GFP expression. […] Cellular supernatant is collected and assayed for the induction of cytokines (e.g., IL2).
# Cellular supernatant is collected and assayed for the induction of cytokines (e.g., IL2).
# JNG (Jurkat cells expressing EGFP under an NFAT promoter) were infected with lentiviral vectors encoding different single chain and multi-chain SARs by spinfection in the presence of 8 µg/ml of Polybrene® (Sigma, Catalog no. H9268). The Jurkat-NFAT-GFP cells are engineered in such a way that the IL-2 promoter, which carries NFAT binding sites, is cloned upstream of the GFP gene. These cells have been used to study signaling via TCR and CAR. The different SARs were stably expressed in Jurkat NFAT-GFP cells by lentiviral mediated gene transfer, followed by selection with puromycin or blasticidin. No drug selection was used in case the construct lacked an antibiotic resistance gene. The SAR-expressing Jurkat-NFAT-GFP cells were cocultured with the target cells at E:T ratio of approximately 1:2 for approximately 4 hours to 18 hours. When the interaction between SIRs and their target antigen results in activation of the NFAT pathway, GFP expression is induced. […] GFP expression was monitored by FACS analysis. The Jurkat-NFAT-GFP (parental) cells were used as control. The structure of different constructs can be determined based on their names. […] The sequence of the other constructs in the table can be similarly determined from their names and by referring to the different Tables of this disclosure that provide the names and SEQ ID NO of the different modules. Alternatively, the composition and modular architecture of the different SAR constructs can be determined from their sequences by bioinformatics tools, including using nucleic acid and amino acids homology searches. A SAR is considered positive in the assay in case the SAR expressing Jurkat-NFAT-GFP cells show greater % GFP positive cells when cultured with the target cell line as compared to parental Jurkat-NFAT-GFP cells. […] In general, the number +/-, +, 2+, 3+, 4+, 5+ refer to approximately 5%, 10%, 20%, 30%, 40% and 50% GFP positive cells. The % of GFP induction in the above assay is dependent not only the relative strength of the SAR but also, among other factors, on the relative level of expression of the SAR in the JNG cells and the relative level of expression of the target antigen in the target cell line. To control for the difference in gene transduction efficiency of the different SAR constructs, the experiment was conducted with JNG cells transduced with SAR constructs co-expressing a drug resistance gene (e.g., puromycin or PAC) followed by drug selection to generate a stable population of SAR-expressing cells. It is to be noted that the drug resistance gene (e.g., PAC) in the SAR constructs is optional and in vivo studies were conducted with SAR constructs lacking the PAC gene.
Molecule,Jurkat-NFAT ASSA Y: Raji [1],GFP induction / activity in JNG assay [2]
B1,significant residual activity,
B2,significant residual activity,
B3,,only weak and inconsistent activity
B4,,best activity
B5,,only weak and inconsistent activity
